In the supplement of paper PMC12042874:
± gives the uncertainty stated by the source.

assay: amyloid nucleation score (Sup35N fusion, yeast selection) (log enrichment); library NNK3; higher = more nucleation; inactive = no reads after selection
Summary of the method: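 Sup35N was fused to peptides of 20 random codons and expressed in psi-negative yeast, which were induced with 100 μM copper sulfate for 24 hours and then grown on medium lacking adenine and uracil for 7 days at 30°C. Plasmid inserts from input and output were sequenced on Illumina. The nucleation score is the DiMSum log enrichment of output over input reads, centred on the mode score of non-aggregating sequences. Sequences with under 100 input reads were left out, and random libraries had three technical output replicates.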

Substance	amyloid nucleation score
LVVCKLRV	inactive
LVVTTPLRRGKDLDSMRYTC	inactive
LVVVR	inactive
LVYFFFRVYNGPRMGS	inactive
LVYNLNRKRGCKGVPVLRYS	inactive
LVYVLDCRAKLTNYLISTLY	inactive
LWANNGSCFMCEYSHDGGKN	inactive
LWASTVGVFVGRRSPYLMCW	inactive
LWCCEYRNRAATMRVPDPEL	inactive
LWIVLQVHSFDVRFAQGFHI	0.613 ± 0.17
LWLMVFWKINGNMLGCHPEM	inactive
LWQNSDLSSSDEYGQRFGKR	-0.706 ± 1
LWRLRAIWVNNVMAVRKFVG	-0.68 ± 1
LWVRKDERGEYI	inactive
LWYGKYFFIDKRQA	0.359 ± 0.23
LYAQNLV	inactive
LYDCRRGNLVTSCWNKCCLP	inactive
LYDLTGPVSNLTISLLNVEY	inactive
LYDSSYMVDIDSYTLENCRS	inactive
LYFRLPNASAVDIIEIGFPV	0.039 ± 0.55
LYGGLEHESIMFIRCSGWIC	inactive
LYGGTAFLLSFCVAE	inactive
LYLYSWFC	inactive
LYMNFSMDGIASVSLGVLRL	0.633 ± 0.19
LYMYLGRVCMWHLRCHKRYN	inactive
LYNGGI	inactive
LYPVTKR	inactive

Substance	amyloid nucleation score
LYRPCLWSDWRT	inactive
LYSETWEY	inactive
LYSGFRGMPKYTDKNCMGRV	inactive
LYSIWGRNRGHGMIGWDPLT	inactive
LYSLT	inactive
LYSLVFWNDSSCRSRLVTWF	inactive
LYSVFVRRSCLNG	inactive
LYTDDAPGDVFLFNAFRVFH	inactive
LYVATS	inactive
LYVHFSILCTFGWSVPNQEG	inactive
LYYNYRGGYVYKNRDEVTLF	inactive
MALSRILTALVVLLLTVVVC	inactive
MAYLNLVQV	inactive
MCFGKYLSL	inactive
MCGDKSV	inactive
MCIHSITECRS	inactive
MCILQGLFDVNSLTGLWVAS	inactive
MCPPVSGNG	inactive
MCSRCLFHCGLVVCRVVVPA	inactive
MDAISFQRDMMFNGGFFCAM	inactive
MDEGIVKTELFYRWRISRLG	inactive
MDIRERRRFFSNIRRVRYLK	inactive
MDRIFWD	inactive
MDSLGW	inactive
MDVKKRQSSGVALRFELLDG	inactive
MDVWASYMTVSESVCSSLVR	inactive
MEINAVPD	inactive

Substance	amyloid nucleation score
MFCDLINESSHCCEATLECN	inactive
MFIFGGISFVMVSYLNRAHT	1.13 ± 0.1
MFLRVSTTINAYFLRVRSLI	inactive
MFLWRDCNGTN	inactive
MFMVHQVDTERW	inactive
MGGLIFVSLKAWSIILHYNK	inactive
MGHSDNGEDTSTWLCDRRVV	inactive
MGPRQKCALIATRKCQSVYL	-0.334 ± 1.1
MGRAWTIQAGNVMCRVVGKH	-0.283 ± 0.58
MGRGWRHGCWLGRILRFWYD	inactive
MGSSFGGVLVSISVSWGCGF	-0.012 ± 0.51
MHFRTSDIPTTLELGLLGWP	0.096 ± 0.47
MHFVELLRLALVL	inactive
MHGTI	inactive
MHLDYGC	inactive
MHNRLVNDPACPVSTSSL	inactive
MHYICAGSGSWAI	inactive
MIFKKDSLGMILHFHHYFYN	inactive
MIGLDDWVLALRVRRCSLLV	inactive
MILLGKNSLDPEGKGVCHVW	inactive
MINVPSVSYTMSSVIYTSFK	2.39 ± 0.055
MIQGSVYPFHLCHLYDISHE	inactive
MIRMIMLSRSDRPGVSRKLD	inactive
MISNHCYSLTMIAE	-0.432 ± 1
MISRSSNKGV	inactive
MIVWTHNYLEGELFVSLPLV	inactive
